# Results reported in the DeepSol protein solubility set.
# Test: soluble on expression in E. coli; label from the status in PepcDB or PDB records
row,Sequence,soluble on expression in E. coli
1,MGSDKIHHHHHHMQLKPLLRQLATTFEVTVDPTFTHNPEVTHVQFVDPTEALASHRLYLSPDSSQLVQLTYSWHGHRQSVGLVNLGTGLTTIIAAQNQLLKLLMTLGQCLHHDVQIQAAINQLAIQAITADFDTTLAQAVRLLENPLAIIDLNGEILTRSHTTQLNGTSIHAAVETNRVGRWLLDHGFAPDTPDFLTQVYVAEDQLSAGPMLITPLANGTEPLGYLVMPALNKPLNDRQALLINSIGQVIAGSLVKNQIMPTAESQRDRLLNLLLTEHQGGTFADQFAEQHVQLPTAMVLIRCEPLADQAPMILQQRLQYLMMPRFKQVLVSTYQQQCVALIPISLVAYNQNQFKLTLQQITKQADCRLIVSQHYVNPEDTFAAYTVCERTAQLKTGRGRVIFCEDQFYNLALARVNHLEILPFFINPALRLLLAYDQQNHTELVPTLDVYLRATCNLTRTAKQLYVHPNTLRNRLHHITTLTGCDLRDAETCFKLAASFKLRQFLTQHQYQYRPDIPIPTQD,not soluble
2,MGSDKIHHHHHHMQLPGGVQLTYCTNLHAASSLDEVRANLDRYAVPLKARLSPNAPFGIGLRLSGQESAELLEGQALAAFKAFLDERGLYVFTLNGFPYGPFHGQPVKTQVHAPDWRDAERVAYTQRLAEILAFLLPEGGEGGISTSPLSYRGWVEADSRSAWIQMTGNLVRVVETLIRLRQRWGRFIHLDLEPEPDGLLQCSDDLARFFREHLLGGGARDLAARLGIDVEQARAYLRDHVQVCFDTCHVAVMYEDPAQALQTYEQVGLRIGKVQISSALRLPLPPDPEARLDGARALVPFVEDTYLHQVIGRSRDGKIVQYPDLPPALAHVRDPQVTEWRIHFHIPVFLERAGLFASTQPEIVKTLALLREKGFTRHLEIETYTWDVLPEALKLPLLCSIEREYRWVMDVL,not soluble
3,MGSDKIHHHHHHMQLSHSLRLMGTTIDIQINSKNAQKQIREVIELLELYKNRFSANDFNSELMAINNNAGIKPIQVHPDLFELITIGKEHSLARPSNLNIAIGPLVQTWRIGFSDAKLPSPSEISEAMILSDPTHILLDSNKQSVFLNQIGMKIDLGALAKGYIADKIMTYLKNEMIDSAIINLGGNVLVHGDNPNRSEGYWVIGIQHPKKKRGKNIGTVKIKNQSVVTSGTYERRLIIDDKEYHHIFDRQTGYPIQTEMASISIVSKQSVDCEIWTTRLFGLSIKEALDILNAVSYIEGIIITKDDRIYLSDGLKHHFQLFYH,not soluble
4,MGSDKIHHHHHHMQMENSVTTRSRSPDAVRDSAVDRNAYQAKIDPHALKFQIFQEVLTIKREFKCCGGGCCGCLACIGCCQQECIIETPSMGVLGIIRQRCGCMSSNYDIMDGDGNVIFQIDGPCCCMLCGCQDKEFPIKTANNGTVVGAITKKWGGCFREAFTDADTFAVNFPGDLDVKLKGVLIGATFLIDFMEFEQQSQNRNNGV,not soluble
5,MGSDKIHHHHHHMQNLSPTQREILLALTDLYNRQKRMIKSKEVADIIGKDEGTVRNIILSLKVLGLVESKPGPNGGYMPTLKAYEIINNPTLTPILDKLNLYKGMIETDIKVENIEIIDITNPSANRVLLKVEGDLRKLKIGDAVRLGPTPYSRLVIEGLILHLDENSKEIVVDVKRMISIPKEKVKNLISKKLIALKPETSLREASMIFYKEAIRGAPVINQDEKVVGILTTADIIKAFFEGNYTAKVSDYMKTNVISINENEDLLDAIRKMIIYNVGRLLVLDSNNKAVGIVTRTDILRSIAGLEGLWTT,not soluble
6,MGSDKIHHHHHHMQPELSEFLRQHRITEVEAIIPDMAGIARGKIIPRNKFESGESMRLPQAVMVQTVTGDYPEDGTLTGVTDPDMVCVPDPSTICLVPWAVDPTAQVIHDCVHFDGSPVEISPRYVLRRVLDLYKAKGWQPVVAPELEFYLVDMNADPDLPLRPPIGRTGRAETGRQSYSIEAVNEFDPLFEDIYEYCEMQGLDIETLIHEVGAAQMEINFVHGDALSLADQVFLFKRTVREAALRHNMYATFMAKPMEGEPGSAMHIHQSLADVHTGRNLFAEEGGVVSPMFHSYLAGLQKYTPALMPIFAPYINSYRRLSRFMAAPINVQWGYDNRTVGFRIPQSTPVARRIENRIPGVDCNPYLAFAATLAAGYLGLTQQLAPTEPIASDGYDLPYQLPRNLEEGISLMAACTPLAGILGDKFVKAYLALKETEYEAFFRVISSWERRHLLLHV,not soluble
7,MGSDKIHHHHHHMQSIVQTNFTGIDGLIIRNEPRPALTDNGVLIAMETLPVVPSDWHKETDPNATAEQALQLPRVIGIGGVGTVIEVGHNRDQKLLHQRVLVMHPKGSYQEFILNTNSDWLFPLPINVSNAEAATLTAGPGVALALTEFIKQNPSDHLVITGANSVIGLILCQLLGSTYPGLTPIVSPDSQAYFNQSLPGYPVYSIEHLQLFHGRTLIIDIAGSEPLLQQLIAAVPRASIASIALQTSNLNVPFTFVHEDFNHQIYCHLIKTVASHKLWLPIGRIFSFAETKKAQHYAKDHHSRGRVLVNLN,not soluble
8,MGSDKIHHHHHHMQSNRLTESSAEIHDMSLRIYQTPVQHLPEDLYVPPQAFAIWLEQFAGPLDFLLYLVKKNNVDLTRMPILPITEQYLAYISKLDTNHFELAGDYLLMASTLIAIKTELLLPMPEMPTDERDPKAELIERLEEYTQVKAASQRLDNLIRLERDVFLAMVSMPNQDIMNSELPSYSPTLLIDSLFKMQLQPDYQMHSIKVDAVPLADRIASISRQLSTDGARSFHELLDKAQGKIGVVVSFVAVLELIKRQLIGVVANNVDSGVSTATNADGSLSTHSDLLEKLTLEWLA,not soluble
9,MGSDKIHHHHHHMQSSSTLFPVALLSAERRGDLSEDVYRIKAGNGPDPSVELAITRLGLADQAQAQGVPVILLHGSFSNRRFWYSPKGVGLGAYLARAGFDVWIPEMRGHGLSPRNHDWKHNSVAAYARDDLPLINAFVREQSGQAPHWVGHSLGGTTLVAALGGGFLAAEQLASVALFGTQISRVYWPLKVPPLAWGAKLVLKRWGQISGPRFKRGPEDEPIGLALESMRWHGLFGRFGDKQNDWWAGLAEVDVPLLAVAGAGDFQDPVWACRKLFEQLGGERKQFLRLGREEGFEAFGHVDMLVSKAAQVQVWPLVERWLHNPLLPVHASTVVAEPVPAS,not soluble
10,MGSDKIHHHHHHMQVIKQKLTATCAQLTGYLHQPDTNAHQTNLPAIIIVPGGSYTHIPVAQAESLAMAFAGHGYQAFYLEYTLLTDQQPLGLAPVLDLGRAVNLLRQHAAEWHIDPQQITPAGFSVGGHIVALYNDYWATRVATELNVTPAMLKPNNVVLGYPVISPLLGFPKDDATLATWTPTPNELAADQHVNSDNQPTFIWTTADDPIVPATNTLAYATALATAKIPYELHVFKHGPHGLALANAQTAWKPDANQPHVAHWLTLALEWLADNR,not soluble
11,MGSDKIHHHHHHMQWFENPLFSERVEFLESSQYWPAERHAVYQLRSLRRLVHHVAAHVPFYRDFMAASGIRPEDILSIEDIKRFPIIDKKVIQAQPEAFLADGSDRATLLHRTTGGSTGTPLTVWFDGDLLARDKANTEHYMRAIGLDIFTWKSIRLYGDKIDPEITDTGRYWKLVDGRRLVMSCYHITHETAPAYVAELNRFRPRYIHTRPSSILPLAKYILQDGLALDPIRTIVSDGEYLTDGQRAVIERAFQGRLYNIYGHTEACVVGHPCHHSDGLHLMPQVGVTELLDEQGRDVTEPGGRGELVVTGFNNPVMPLIRYRTGDVAYLGEGGCRCGRHYQMLKGIEGRLQDYVIDAAGNPTPLAPAVFNYNDMDWKGIKEFKVIQDTPGELTILIVLEAELAADPAGSKAVLEQRIGAILAGFRISITLVDDIPKTKIGKHRYLDQRLDVKELVSFR,not soluble
12,MGSDKIHHHHHHMRADIIKVNHLLEIEMENNIGKEYLPSRLEEISDEHWHISMPMRKGMYITMRVGQKIRIVLRYRNTMFAATTVIAARRRGHIPVLIVSKPKDLIAINQKRTYVRISVAIPVAFRLLLADGEKGELLQGVTGDISAGGMLLLSPQDMEKDQKIEVEIKLPDSDSIFCQAHVVRVLGKASEEGSNNKYAIEYDDINEGQRDRIFRFIFDKQREWLRKGVTE,not soluble
13,MGSDKIHHHHHHMRALATWQDKCIDSQLLVASLVGLFKQRDLDCDKLLRGTGIFITDIRKPDHLISPKQLARLLDNALAQWPNGDLSFLLGQLWFPSQSGVLTSGMFCARDVKELIYFWHKYHWLTQPWLQTWRWQGEHEWHFLLSLDLGMHRHKQFFIELSLSSFMACFKQLLGQAWRGSICFPYPAPDNLAHYYKYFGMDLRFDAPLCRISMAKNLLRQPSLFANQSLLYSQPENVDTHCAEDAQLPSASQSCIHGEAASPALDIQPLQLPLRPQLNMAKAARQALFAQEFRLGLAAGIRLKLMRRTLSLPEMAQILEISPATLKRRLGEMGLNYGQLADESRLIRALYFLAEPEQDAHSIASSLSFSDASNFRRSFKRWTGQLPGYFRYWLA,not soluble
